Entries after “also recorded” stand apart in the source; their conditions may differ. Non-standard residues stand in square brackets, D forms with d. Residues, ends and D or L forms follow the SMILES beside them. No end group written: not given here. *: point of attachment. Sta = CC(C)C[C@H](N)[C@@H](O)CC(=O)O; Mca = COc1ccc2c(CC(=O)*)cc(=O)oc2c1; DNP = 2,4-Dinitrophenyl, quencher; Isovaleryl = CC(C)CC(=O)*

Assay [1] addresses T1, OMA1 (Rattus norvegicus, UniProt D3ZS74).
T1 construct: Renal cell lysates from normal rat kidney (NRK) epithelial cell line were prepared; endogenous in cells; host or cells: NRK-52E (ATCC CRL-1571), RIPA lysate, 5 µg protein per well
T1 sequence (D3ZS74 123-504): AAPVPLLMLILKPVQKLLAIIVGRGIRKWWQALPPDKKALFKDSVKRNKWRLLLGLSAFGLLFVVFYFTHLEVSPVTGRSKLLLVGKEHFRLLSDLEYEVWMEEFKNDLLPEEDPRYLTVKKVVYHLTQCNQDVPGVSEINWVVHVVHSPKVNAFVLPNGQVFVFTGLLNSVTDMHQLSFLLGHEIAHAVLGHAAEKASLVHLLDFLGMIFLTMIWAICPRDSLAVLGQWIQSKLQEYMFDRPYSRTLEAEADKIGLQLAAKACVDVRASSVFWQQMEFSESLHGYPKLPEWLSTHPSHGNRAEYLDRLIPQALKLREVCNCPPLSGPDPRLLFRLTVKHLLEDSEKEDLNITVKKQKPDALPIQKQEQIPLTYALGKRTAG
The experiment in a line: OMA1 activity assay (OPA1 FRET substrate) in NRK cell lysates. In kind it is biochemical. The following applies: for decrease of OMA1 activity compared to the standard substrate sequence: modified 8-mer FRET substrate vs AFRATDHG
The procedure: Normal rat kidney cells (NRK-52E; ATCC No. CRL-1571) were maintained in a humidified incubator with 5% CO2, 95% air at 37° C. in DMEM containing 5% fetal bovine serum. Renal cell lysates from normal rat kidney (NRK) epithelial cell line were prepared by using radioimmunoprecipitation assay (RIPA) buffer (Pierce) with 1 mM PMSF (Sigma), 1.2 mM Na3VO4 (Sigma), 2.5 mM NaF (Sigma), 1 mM DTT (Sigma), 1× of Halt Protease & Phosphatase inhibitor cocktail (Thermo Scientific), and 5 mM EDTA (Thermo Scientific). Protein concentrations were determined by Coomassie Plus Protein Assay Reagent (Pierce).
Our OMA1 activity assay utilizes an 8-mer peptide derived from the cleavage sequence of OPA1, which is reported to be specific of OMA1 which is referred as the OPA1 FRET substrate. The peptide contains a fluorogenic MCA moiety on the N-terminus and a DNP quencher moiety on the C-terminus (FIG. 1), which was custom-synthesized by LifeTein LLC and handled accordingly to the manufacturer's instructions. Using a final 100 μl reaction volume and black, opaque 96 well plates (Costar), the reagents were added in the following order: 1) OMA1 activity assay buffer (50 mM of Tris/HCl, pH=7.5, 40 mM of KCl), 2) 5 μg of protein sample, 3)+/−200 μM of the zinc chelator N,N,N′,N′-Tetrakis (2-pyridylmethyl)ethylenediamine (TPEN) resuspended in 100% ethanol and lastly, 4) the OPA1 FRET substrate (5 μM final concentration; dissolved in DMSO). Fluorescence was recorded (excitation/emission of 320/405 nm) once per minute for 30 min at 37° C. using a fluorescent plate reader (SpectraMax M2e, Molecular Devices equipped with SoftMax Pro v5 software).
For the statistical analysis, the average fluorescence of the OPA1 FRET substrate alone was measured (<150 relative FLS units) and that value was subtracted from the sample values. The values were reported as a difference of TPEN inhibition [(sample X)−(sample X+TPEN)] where the slopes between 0-30 min were calculated (by linear regression) and each treatment were compared to appropriate controls. Thus, OMA1 activity was calculated by […] to enhance specificity.

Assay [2] addresses T1, OMA1. Kind of assay: OMA1 activity assay in rat renal mitochondrial lysates after cold storage / transplantation. In kind it is biochemical. The conditions noted are these: cold storage alone or followed by transplant. The source says: Long-term renal function is compromised in patients receiving deceased donor kidneys which require cold storage exposure prior to transplantation. It is established that extended cold storage plus transplantation of kidneys induces renal mitochondrial dysfunction. To assay OMA1 activity under stress conditions known to induce mitochondrial dysfunction an exemplary reporter molecule of the invention was employed in mitochondrial lysates from control kidneys (CTRL), sham surgery (SH), cold storage alone (CS), or cold storage and transplantation (CS/TX) conditions.
Our OMA1 activity assay utilizes an 8-mer peptide derived from the cleavage sequence of OPA1, which is reported to be specific of OMA1 which is referred as the OPA1 FRET substrate. The peptide contains a fluorogenic MCA moiety on the N-terminus and a DNP quencher moiety on the C-terminus (FIG. 1), which was custom-synthesized by LifeTein LLC and handled accordingly to the manufacturer's instructions. […] Fluorescence was recorded (excitation/emission of 320/405 nm) once per minute for 30 min at 37° C. using a fluorescent plate reader (SpectraMax M2e, Molecular Devices equipped with SoftMax Pro v5 software).

Assay [3] concerns OMA1. The experiment in a line: Live-cell OMA1 activity assay with mitochondrial targeted FRET peptide. In kind it is cell-based, rat. The conditions noted are these: NRK-52E cells, FRET peptide 10 μM, 4 hr, antimycin A 50 nM, 30 min, preliminary. An excerpt: Live-Cell OMA1 activity assay: To deliver the FRET OMA1 peptide to mitochondria in living cells, we utilized a modified short Szeto-Schiller (SS) peptide sequence1 attached to the amino terminus of the 8 amino acid FRET sequence (custom synthesized by LifeTein) (FIG. 5A). […] Small molecule/peptide library subsets or novel peptides will be screened for inhibitory activity using this live-cell OMA1 assay.
Live-cell OMA1 activity assay preliminary results: To deliver the FRET peptide to mitochondria in living cells, we have used a modified short Szeto-Schiller (SS) mitochondrial targeting peptide sequence1 (d-arginine, dimethyl tyrosine, ornithine, tryptophan) attached to the amino terminus of the eight amino acid FRET sequence (FIG. 5A). Normal rat kidney (NRK-52E; ATCC No. CRL-1571) cells were plated on black 96-well cell culture plates (10,000 cells/well). The next day, the cell permeable peptide was added to cells (10 μM; 4 hr; 37° C.) followed by exposure to ATP depletion/antimycin A (50 nM; 30 min) and OMA1 activity measured (ex/em 320/405) using a plate reader. […] Future studies will optimize the mitochondrial targeting sequence so that the highest efficiency of mitochondrial localaization without altering mitochondrial oxidant levels will be achieved, which we predict will yield the highest sensitivity for the live-cell OMA1 activity assay.

Assay [4] concerns the target T1, OMA1. Kind of assay: OMA1 activity assay (OPA1 FRET substrate) in NRK cell lysates. The following applies: untreated NRK cell lysates (5 μg), substrate 1-30 μM, Michaelis-Menten. The format is biochemical.
In assay [5] the target is T2, OMA1 (Homo sapiens, UniProt Q96E52).
T2 sequence (Q96E52 144-524): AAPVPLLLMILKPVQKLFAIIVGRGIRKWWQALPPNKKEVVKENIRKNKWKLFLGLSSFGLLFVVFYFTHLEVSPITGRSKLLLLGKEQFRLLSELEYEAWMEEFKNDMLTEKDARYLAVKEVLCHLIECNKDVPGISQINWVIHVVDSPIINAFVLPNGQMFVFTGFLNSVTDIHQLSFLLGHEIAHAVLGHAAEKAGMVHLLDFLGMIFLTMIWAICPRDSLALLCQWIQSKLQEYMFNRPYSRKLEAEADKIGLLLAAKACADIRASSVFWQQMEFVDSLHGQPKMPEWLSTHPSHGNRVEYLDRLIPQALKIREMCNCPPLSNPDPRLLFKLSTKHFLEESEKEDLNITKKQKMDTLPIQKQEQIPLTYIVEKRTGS
The conditions noted are these: prior studies (refs 12, 24); cited from earlier work.

The mark [6] stands for this setting: Table 1, average slope over 30 min compared to AFRATDHG substrate, n = 3.
The mark [7] stands for this setting: Table 2, slope over 30 min, % comparison to AFRATDHG, 2-3 experiments/substrate.

As for `c1ccc(CN(CCN(Cc2ccccn2)Cc2ccccn2)Cc2ccccn2)nc1` [TPEN, N,N,N′,N′-Tetrakis (2-pyridylmethyl)ethylenediamine], the “effect on OMA1 activity (slope, FLS/min)” value on OMA1 [1] (NRK cell lysates with TPEN (200 μM in method) vs untreated lysates) is listed as “reduced OMA1 activity; also recorded: dramatically decreased fluorescence”. Also, on OMA1 [2], the “effect on reporter fluorescence (FLS) increase” value was “effectively inhibits FLS increase; also recorded: effectively inhibits the reporter molecule activation”.
With antimycin A, the “OMA1 activity (fluorescence) in live cells” value in the assay on OMA1 [3] is “increased OMA1 activity”; in the assay on OMA1 [3] (listed as AMA), “induces OMA1 activity”.
Regarding “AFRATDHG (Mca-AFRATDHG-{DNP}) [MCA-AFRATDHG-DNP, eight amino acid OPA1 S1-site peptide with MCA fluorophore on the N-terminus and DNP quencher on the C-terminus]”, the “OMA1 Activity” value in the assay with OMA1 [1] (setting [6]) and with OMA1 [1] (setting [7]) was 100% in each case. In addition, the “Vmax for cleavage of the OPA1 FRET substrate” value with OMA1 [4] was determined as 34.6 FLS/min. Besides, in the assay with OMA1 [4] (read-out: Km for cleavage of the OPA1 FRET substrate), the Km worked out at 7.1 µM.
Turning to “AFKATDHG (Mca-AFKATDHG; not fully specified (C-terminus); also: FRET fluorophore and quencher) [FRET substrate with Arg changed to Lys]”, the “OMA1 Activity” value with OMA1 [1] (setting [7]) came out at 61%. Besides, the “decrease of OMA1 activity compared to the standard substrate sequence” value in the assay with OMA1 [1] is about 40%.
Consider `CC(C)CC(=O)N[C@H](C(=O)N[C@H](C(=O)N[C@@H](CC(C)C)[C@@H](O)CC(=O)N[C@@H](C)C(=O)N[C@@H](CC(C)C)[C@@H](O)CC(=O)O)C(C)C)C(C)C` [pepstatin A] (Isovaleryl-VV[Sta]A[Sta]-OH), for which the “prevention of OMA1-dependent OPA1 cleavage” value (“prevention” below) at OMA1 [5] is listed as “do not prevent OMA1-dependent OPA1 cleavage”.
On to “ATDHGSES (Mca-ATDHGSES; not fully specified (C-terminus); also: FRET fluorophore and quencher) [eight amino acid FRET peptide from OPA1 downstream of the cleavage site, no RA motif]”, for which the “fluorescence of FRET peptide without R-A sequence” value with OMA1 [1] (FRET peptide downstream of cleavage site) is on record as “abolished fluorescence”. For the same compound, the “OMA1 Activity” value with OMA1 [1] (setting [6]) and with OMA1 [1] (setting [7]) was 2.71% each time.
Regarding `CCOC(=O)[C@H]1O[C@@H]1C(=O)N[C@@H](CC(C)C)C(=O)NCCC(C)C` [E64D], the “prevention” value at OMA1 [5] is listed as “do not prevent OMA1-dependent OPA1 cleavage”.
For pefabloc/TPCK, the “prevention” value on OMA1 [5] was “do not prevent OMA1-dependent OPA1 cleavage”.
Take `CCCCC[C@H](CC(=O)NO)C(=O)N[C@H](C(=O)N1CCC[C@H]1CO)C(C)C` [actinonin]: the “effect on OMA1 activity (slope, FLS/min)” value on OMA1 [1] (NRK cell lysates, 0.5-1 μM, vs untreated lysates) was “neither the broad-spectrum MMP inhibitor, batimastat (0.5-1 μM), or the meprin A inhibitor, actinonin (0.5-1 μM), altered OMA1 activity”; at OMA1 [1] (NRK cell lysates, 0.5-1 μM, vs untreated lysates, listed as Actinonin) it was “Only TPEN reduced OMA1 activity”.
For “AARAAAAA (Mca-AARAAAAA; not fully specified (C-terminus); also: FRET fluorophore and quencher, sites not given here) [FRET substrate with RA motif flanked by alanine residues]”, in the assay with OMA1 [1] (setting [7]), the “OMA1 Activity” value worked out at 35%. In addition, the “decrease of OMA1 activity compared to the standard substrate sequence” value in the assay with OMA1 [1] is listed as 65%.

Usually Km stands for the substrate concentration at which the rate is half of its maximum.

These data come from patent US10739331B2, “OMA1 activity assay” (BioVentures, LLC, priority 2017, dated 2020).
